Test: soluble on expression in E. coli; label from the status in PepcDB or PDB records

Row | Sequence | soluble on expression in E. coli
1 | GPGSMSSADLFKKFTLQNVAQIANSSHKEQMQVRHDLAEQYPQLADFWEDIMPRKSDIMLVRCHDQVHCVTLVSAQPEVLFFNHHNGPYIPHLKLLHKYPFILQRHQVDVGACKHVLSGANIMCPGLTSKGGYITPEIPAGQLVAVYVETKEHAVAIGKTLMSSEEIKKVNSGPCIENIHHVGDGLWMNRVLSASHIGAR | soluble
2 | GPGSMSSGSHRSPSAMRPSTRISSIGATSNRSSTHNTETELDPFVASLSRVTVYTDIPDKTLQRIMSITVDAYNRFVLVPTRNTWRKEEGSRKELEREVERTALRDIAQAVKVNVEAALGGTWHVIYGRSFATYVTHQQRCFCHFQLDGANVVVWRHGG | soluble
3 | GPGSMSSSNAQAELGPGGSTHSIELGRLIFQGAESKVYCCSFYGALALCKHRFVKRYRDPSLDERLRTQRTRREARALERCVKKGIRAPRLLGADYINTFLVMSYEAGPTVKEALDIEHAAYMQQVSKGKSTSAQQQQPQTTPSPSALGNAAPSPVTAALLQSIGVVVARLHNANIVHGDLTTSNFICTCDGLEAAAPGADGADALASSSPVLPTAEDIVVLDFGLISEKYSTEERAVDLYVLERAIASTHPYLSSFASDIILEGYRSAADPKKGEEALRRLEAVRARGRKRTMIG | not soluble
4 | GPGSMSVKETTIALPLMVESVLDVDSGITATSAISVLDDRAVLIGTSEGSILLCAPVNESAHVLTPYSDTTLHCGAIYDLAVSSDHLVATAGHDAVSCVFPLHTFFRASGVRQCRRITGHTVPVVAVRFLSDGTSLVTLGADGRVLVAEVHSGHVLASLLCGFAATCLACSMDETQLFVGGRSLASIDLHHAMRPMSLQSVAAAASGPDPWASLSSAAAAPGAAASLRTPAWLRLYAWEEKSEATAGASRRQFRAPPHTFIRSLSVDSRDGALTATFARHAGGTSSVEVCGSARWAATGGRTASEATWAPQALQGVSAALRYPMSRDRSTGVATGKLRVRCRVKASARPSAKQTPAPPGSFASTAAALWNGRWYASPFELAGGTPRLTASHGLAETSVFTAEKSDQYGFPSAGPRTPAEELLIAQAQCDELQRECDALVFQIKSFLARKAPIR | not soluble
5 | GPGSMTDRLTAEDVFYELSTIRDPERPDCTLADLDVVAMNRCRVEYIESSADFQSLRGQGCNDSGKPSVVVKVILQPTVPHCSLMEFICLCVYVRLREVFSLSNNAKFDITLVDGSHVRQRELEKQVADKERLAAAMEDKALLQEVERHINCE | soluble
6 | GPGSMTSLNTELALAKRFHMLSKNYSNRPVIARRNTLPTLVRFIRSNDRETRHYSLSALLLLAQHEENVELLCLERGLVPGVYAVYKDADYDDPQLREIADQILNCLEPVLQGRDPRKASQTSVTPVGSSSDAVDSDPLNDSFSPSRRARAGRVLRGVGSDAIHTVLLDIPALDPNGGDNIEAIEDIFQTTRGVLSYSIFVENRQARLFVTCATQVVQQVLSDSGFESVVVRDDVVNQEMFGGGADGSAGLNSGGNRSNTSYYDGGSPQHRPSYLQSVANSIYQSALVLGGGSRNNDTLSARVNEQRTREQEGESTFGYISKTLSKWW | not soluble
7 | GPGSMTTLVLCDGSEGSLRSIEVACAGNATPTSSMPSQEGSLLLLHVWDTPATRTSVLHPSVGAEGMYTPRRSVSSAAAAAAQTSADAGGHGGSSMPCADVLTTTLQYIHTNKYLKNKLHYTVETTCASTVFARDNTDHSVLSEAGAAPAGGTAASQAAHGRAGQGQKRASCSAGGAGSARRRSDRRPSQRQIDTAAEISAGSSNNTGDGTAPERQEAPVSIPENEKRAMAVVKYATARAAHHHVTAVLLGVGQRQDGKVCTVGAVAQGVLLELRSLYPLYYVKKDGVKWRPALSTTTTTTAATPRRFTIVVAVPADARWESATAAETRSGNEEAAAQTTASIETPSVAPPQVPIHVQEAVAATVQYVQTRCMRLHAALQVEQITFAVIATSSSQDGNSITEPDRGENGGHVAAGPDASGGKDGSTWISPLEAYKRHLESLPFVECKSIPPANAAAPLLSPVNRINPAAVGETGGIEQHLPEDGAAMMCVEGSATGAPAPRGAASPVAVCVLKASKKNPLLSLDSEPEVALPQIIKQVGSLKPEVLVMPKSLVPESLQLALLATSNPHCIVLPF | soluble
8 | GPGSMVDVIIYTRPGCPYCARAKALLARKGAEFNEIDASATPELRAEMQERSGRNTFPQIFIGSVHVGGCDDLYALEDEGKLDSLLKTGKLI | soluble
9 | GPGSMWGPNQEVAHPRHDGKSFYLPSTSAAGAAALGASLLPHSNLVCAPLNPHIAREPVDTATGDGDGTVRALLTRFRIENERLRDQVKAHVVQEALLTQRLQELSARNTALHLQDFRKRDNDAVVEKLKKQLEVKEMEVRALQLQVGELNGRISAYEEAISRPDHPQGLSANSMDRVRELICEALSSAGFLTRVANAVEHCHPSTHEVTDCPRSVEECTNHCLQAAMRGNKELPGETAARGHHVSCEELASALREEVLFCETVAVRVAAKLFMERSSADSSAKADRGTGLQHQEESAPPLARPTAECPAEAHELPQSDRRPRRKPAARPTVEDCEVQ | not soluble
10 | GPGSMYHGNGSVNDAADASFCPQPSPTRPSREAPPSAPPPTGRVTRTQALARLLRGEGSSTHTKPVRAPGNDAKELKVSETRKECVVGEVQADAPPKKSEGTSSHAAVPLAASATITPDDRDDIGAALQEIGDASRRHRRHSHDAEGTSGDAVRDDASDGGAANMSDDYNGDDNSESTCSARRSGAGSAPAEGFSAHPTHARARGRAVSTRQAANALPRMLALQRSFEAEAKHLYEYCGTHVVEWPTLAVEWIPDRAFVDPERDYTLQYLAIGTQAHPLSGAANAVKVMEVAVPVTAAKDVMYGLYGDDDTAGVEAVDPAREGGIDPGKRFANVKGHFHCEQTLTMDAAVLKIRAMPAETNVIAVKTASGFIGVYNLLQDLTQNEAGRTVPDALLCGHRRGGFGLSWNALKPGFIASAADDGYVNYYDVSHRLTIDVREASDVDPALTGPETQPLERLVGHRDIVTDCCWHSSQGHLLASSSMDGDARLWDIRMSAGSSTIPSAHASGATAAQFHPIGAFQLATAGAEGSISLWDIRRTADPVWELNYHGRPITGLQWSPFCETVMLSYGADGRVVLWDLAKTTLPLGYSEDQLAPPEVSFVHIGHVGRVTDASWNSSTTEEWLLASADTTNGVHVYRPLVNVVQDYRAYQH | not soluble
11 | GPKDNNKTLKPAIAEYIVKKAKQRIALQRWQDELNRRKNHKGMIFVENTVDLEGPPSDFYYINEYKPAPGISLVNEATFGCSCTDCFFQKCCPAEAGVLLAYNKNQQIKIPPGTPIYECNSRCQCGPDCPNRIVQKGTQYSLCIFRTSNGRGWGVKTLVKIKRMSFVMEYVGEVITSEEAERRGQFYDNKGITYLFDLDYESDEFTVDAARYGNVSHFVNHSCDPNLQVFNVFIDNLDTRLPRIALFSTRTINAGEELTFDYQMKGSGDISSDSIDHSPAKKRVRTVCKCGAVTCRGYLN | soluble
12 | GPLGSCDSGTGLTGNYSQDTLTVIATLREAIDLPQDAPNRQEVQDTARGQINDYISRYRRKGDAGGLKSFTTMQTALNSLAGYYTSYGARPIPEKLKKRLQLEFTQAERSIERGV | soluble
13 | GPLGSMSAAIAKPSAKPSAHVDPKSAPLKEIPDVLVDPRTMKRYMRGRFLGKGGFAKCYEITDMDTKEVFAGKVVPKSMLLKPHQKEKMSTEIAIHKSLDNPHVVGFHGFFEDDDFVYVVLEICRRRSLLELHKRRKAVTEPEARYFMRQTIQGVQYLHNNRVIHRDLKLGNLFLNDDMDVKIGDFGLATKIEFDGERKKTLCGTPNYIAPEVLCKKGHSFEVDIWSLGCILYTLLVGKPPFETSCLKETYIRIKKNEYSVPRHINPVASALIRRMLHADPTLRPSVAELLTDEFFTSGYAPMRLPTSCLTVPPRFS | soluble
14 | GPLGSQELRLRVQGKEKHQMLEISLSPDSPLKVLMSHYEEAMGLSGHKLSFFFDGTKLSGKELPADLGLESGDLIEVWG | soluble
15 | GPSSPAGGEARVHVLVLSSWRSGSSFVGQLFNQHPDVFYLMEPAWHVWTTLSQGSAATLHMAVRDLVRSVFLCDMDVFDAYLPWRRNLSDLFQWAVSRALCSPPACSAFPRGAISSEAVCKPLCARQSFTLAREACRSYSHVVLKEVRFFNLQVLYPLLSDPALNLRIVHLVRDPRAVLRSREQTAKALARDNGIVLGTNGTWVEADPGLRVVREVCRSHVRIAEAATLKPPPFLRGRYRLVRFEDLAREPLAEIRALYAFTGLSLTPQLEAWIHNITHGSGPGARREAFKTSSRNALNVSQAWRHALPFAKIRRVQELCAGALQLLGYRPVYSEDEQRNLALDLVLPRGLNGFTWASSTASHPRN | soluble
16 | GQSAKEAIEAANADFVKAYNSKDAAGVASKYMDDAAAFPPDMARVDGRQNIQKLWQGAMDMGISELKLTTLDVQESGDFAFESGSFSLKAPGKDSKLVDAAGKYVVVWRKGQDGGWKLYRDIWNSDPAK | soluble
17 | GQVIARHKVREFNINPVNTPTKSKLHPSVFYDVFPGDKEPAVLSDNDPRLEVKLTESLFSKYKGNVNTEPTENMLVAVDHYAGQLLSLDIPTSELTLKEALYGVDGLEPIDITTSAGFPYVSLGIKKRDILNKETQDTEKMKFYLDKYGIDLPLVTYIKDELRSVDKVRLGKSRLIEASSLNDSVNMRMKLGNLYKAFHQNPGVLTGSAVGCDPDVFWSVIPCLMDGHLMAFDYSNFDASLSPVWFVCLEKVLTKLGFAGSSLIQSICNTHHIFRDEIYVVEGGMPSGCSGTSIFNSMINNIIIRTLILDAYKGIDLDKLKILAYGDDLIVSYPYELDPQVLATLGKNYGLTITPPDKSETFTKMTWENLTFLKRYFKPDQQFPFLVHPVMPMKDIHESIRWTKDPKNTQDHVRSLCMLAWHSGEKEYNEFIQKIRTTDIGKCLILPEYSVLRRRWLDLFHHHHHH | soluble
18 | GRISMTVKKLYFIPAGRCMLDHSSVNSALTPGKLLNLPVWCYLLETEEGPILVDTGMPESAVNNEGLFNGTFVEGQILPKMTEEDRIVNILKRVGYEPDDLLYIISSHLHFDHAGGNGAFTNTPIIVQRTEYEAALHREEYMKECILPHLNYKIIEGDYEVVPGVQLLYTPGHSPGHQSLFIETEQSGSVLLTIDASYTKENFEDEVPFAGFDPELALSSIKRLKEVVKKEKPIIFFGHDIEQEKSCRVFPEYI | soluble
19 | GRRIQGQRRGRGTSTFRAPSHRYKADLEHRKVEDGDVIAGTVVDIEHDPARSAPVAAVEFEDGDRRLILAPEGVGVGDELQVGVDAEIAPGNTLPLAEIPEGVPVCNVESSPGDGGKFARASGVNAQLLTHDRNVAVVKLPSGEMKRLDPQCRATIGVVGGGGRTDKPFVKAGNKHHKMKARGTKWPNVRGVAMNAVDHPFGGGGRQHPGKPKSISRNAPPGRKVGDIASKRTGRGGNE | soluble
20 | GSEDFTFDGTKRLSVNYVKGILQPTDTCDIWDKIWNFQAKPDDLLISTYPKAGTTWTQEIVELIQNEGDVEKSKRAPTHQRFPFLEMKIPSLGSGLEQAHAMPSPRILKTHLPFHLLPPSLLEKNCKIIYVARNPKDNMVSYYHFQRMNKALPAPGTWEEYFETFLAGKVCWGSWHEHVKGWWEAKDKHRILYLFYEDMKKNPKHEIQKLAEFIGKKLDDKVLDKIVHYTSFDVMKQNPMANYSSIPAEIMDHSISPFMRKGAVGDWKKHFTVAQNERFDEDYKKKMTDTRLTFHFQF | soluble
21 | GSHMAPDCSQPLDVILLLDGSSSFPASYFDEMKSFAKAFISKANIGPRLTQVSVLQYGSITTIDVPWNVVPEKAHLLSLVDVMQREGGPSQIGDALGFAVRYLTSEMHGARPGASKAVVILVTDVSVDSVDAAADAARSNRVTVFPIGIGDRYDAAQLRILAGPAGDSNVVKLQRIEDLPTMVTLGNSFLHKLCSG | soluble
22 | GSHMASDLLELTEDMEKEISNALGHGPQDEILSSAFKLRITRGDIQTLKNYHWLNDEVINFYMNLLVERNKKQGYPALHVFSTFFYPKLKSGGYQAVKRWTKGVNLFEQEIILVPIHRKVHWSLVVIDLRKKCLKYLDSMGQKGHRICEILLQYLQDESKTKRNSDLNLLEWTHHSMKPHEIPQQLNGSDSGMFTCKYADYISRDKPITFTQHQMPLFRKKMVWEILHQQLL | soluble
